Assay [1] deals with T1, human PD-L2 antigen (Homo sapiens, UniProt Q9BQ51).
T1 sequence (Q9BQ51 20-273): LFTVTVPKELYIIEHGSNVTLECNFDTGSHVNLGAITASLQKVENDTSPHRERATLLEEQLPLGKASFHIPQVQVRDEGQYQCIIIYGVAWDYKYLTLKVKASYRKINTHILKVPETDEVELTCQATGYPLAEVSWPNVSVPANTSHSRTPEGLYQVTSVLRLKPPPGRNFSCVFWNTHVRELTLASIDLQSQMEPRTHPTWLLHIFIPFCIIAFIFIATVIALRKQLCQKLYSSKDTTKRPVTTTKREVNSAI
As to the kind of experiment: Single cycle kinetics on Biacore 8K, binding to human PD-L2 antigen. The following applies: Table 3; preferred embodiments by Biacore. A general note: SPR reads the build-up and loss of mass on a sensor chip optically.

Assay [2] has as its target T1, human PD-L2 antigen. Described as above. The following applies: Table 2, cell culture supernatants. From the text:
Table 2: Single cycle kinetic parameters of chimeric (VH0/VK0) and humanized variants (tested as cell culture supernatants) binding to human PD-L2 antigen as determined using the Biacore 8K. As used herein, the term “KD” is intended to refer to the dissociation equilibrium constant of a particular antibody-antigen interaction, ka is the binding rate constant and kd is the dissociation rate constant. The binding affinity of antibodies of the disclosed invention may be measured or determined by standard antibody-antigen assays. The relative KD was calculated by dividing the KD of the humanized variant by that of the VH0/VK0 assayed in the same experiment.

B1: VH4/VK2: humanized anti-PD-L2 variant; SEQ ID NO: 5/SEQ ID NO: 11 (antibody, V domains shown)
VH: QVQLVQSGAEVKKPGSSVKVSCKASGYAFSNYFIEWVKQPPGKGLEWIGLNIPGSGGSNYAEKFKGRVTITADKSTSTAYMELSSLRSEDTAVYYCARRRLPPDWYFDVWGQGTTVTVSS
VL: DVVMTQSPLSLPVTLGQPASISCRSSQSLVHSDGNTYLHWYQQKPGQPPKLLIYKVSNRFSGVPDRFSGSGSGTDFTLKISRVEAEDVGVYYCSQSTHVPWTFGGGTKVEIK
B1: the “kd” value in the assay with human PD-L2 antigen [1] and in the assay with human PD-L2 antigen [2] was 0.000129 s⁻¹ each time.

B2: VH6/VK1: humanized anti-PD-L2 variant; SEQ ID NO: 6/SEQ ID NO: 10 (antibody, V domains shown)
VH: QVQLVQSGAEVKKPGSSVKVSCKASGYSFSNYFIEWVKQPPGKGLEWIGLNIPGSGGSNYAEKFKGRVTITADKSTSTAYMELSSLRSEDTAVYYCARRRLPPDWYFDVWGQGTTVTVSS
VL: DVVMTQSPLSLPVTLGQPASISCRSSQSLVHSDGNTYLHWYQQKPGQPPKLLIYKVSNRFSGVPDRFSGSGSGTDFTLKISRVEAEDVGVYFCSQSTHVPWTFGGGTKVEIK
As to B2, the “kd” value with human PD-L2 antigen [1] and with human PD-L2 antigen [2] was 0.000121 s⁻¹ throughout.

B3: VH0/VK0: chimeric anti-PD-L2 antibody, mouse Fab on human IgG1 backbone; SEQ ID NO: 1/SEQ ID NO: 9 (antibody, V domains shown)
VH: QVQLQQSGAELVRPGTSVKVSCKASGYAFSNYFIEWVKQRPGQGLEWIGLNIPGSGGSNYAEKFKGKATLTADKSSSTAYMQLSSLTSEDSAVYFCARRRLPPDWYFDVWGTGTTVTVSS
VL: DVVMTQTPLSLPVSLGDQASISCRSSQSLVHSDGNTYLHWYLQKPGQSPKLLIYKVSNRFSGVPDRFSGSGSGTDFTLKISRVEAEDLGVYFCSQSTHVPWTFGGGTKLEIK
modifications: human IgG1 constant regions
Regarding B3, the “kd” value with human PD-L2 antigen [1] and with human PD-L2 antigen [2] was 9.72e-05 s⁻¹ in each case.

B4: VH7/VK2: humanized anti-PD-L2 variant; SEQ ID NO: 7/SEQ ID NO: 11 (antibody, V domains shown)
VH: QVQLVQSGAELKKPGSSVKVSCKASGYAFSNYFIEWVKQPPGKGLEWIGLNIPGSGGSNYAEKFKGRATITADKSTSTAYMELSSLRSEDTAVYYCARRRLPPDWYFDVWGQGTTVTVSS
VL: DVVMTQSPLSLPVTLGQPASISCRSSQSLVHSDGNTYLHWYQQKPGQPPKLLIYKVSNRFSGVPDRFSGSGSGTDFTLKISRVEAEDVGVYYCSQSTHVPWTFGGGTKVEIK
For the molecule B4, the “kd” value with human PD-L2 antigen [1] and in the assay with human PD-L2 antigen [2] was 0.000118 s⁻¹ each time.

B5: VH6/VK3: humanized anti-PD-L2 variant; SEQ ID NO: 6/SEQ ID NO: 12 (antibody, V domains shown)
VH: QVQLVQSGAEVKKPGSSVKVSCKASGYSFSNYFIEWVKQPPGKGLEWIGLNIPGSGGSNYAEKFKGRVTITADKSTSTAYMELSSLRSEDTAVYYCARRRLPPDWYFDVWGQGTTVTVSS
VL: DVVMTQSPLSLPVTLGQPASISCRSSQSLVHSGGNTYLHWYQQKPGQPPKLLIYKVSNRFSGVPDRFSGSGSGTDFTLKISRVEAEDVGVYFCSQSTHVPWTFGGGTKVEIK
As for B5, the “kd” value with human PD-L2 antigen [1] and with human PD-L2 antigen [2] was 0.000444 s⁻¹ in each case.

B6: VH8/VK2: humanized anti-PD-L2 variant; SEQ ID NO: 8/SEQ ID NO: 11 (antibody, V domains shown)
VH: QVQLVQSGAEVKKPGSSVKVSCKASGYAFSNYFIEWVKQPPGKGLEWIGLNIPGSGGSNYAEKFKGRATITADKSTSTAYMELSSLRSEDTAVYYCARRRLPPDWYFDVWGQGTTVTVSS
VL: DVVMTQSPLSLPVTLGQPASISCRSSQSLVHSDGNTYLHWYQQKPGQPPKLLIYKVSNRFSGVPDRFSGSGSGTDFTLKISRVEAEDVGVYYCSQSTHVPWTFGGGTKVEIK
For the molecule B6, the “kd” value with human PD-L2 antigen [1] and in the assay with human PD-L2 antigen [2] was 0.000121 s⁻¹ throughout.

B7: VH6/VK2: humanized anti-PD-L2 variant; SEQ ID NO: 6/SEQ ID NO: 11 (antibody, V domains shown)
VH: QVQLVQSGAEVKKPGSSVKVSCKASGYSFSNYFIEWVKQPPGKGLEWIGLNIPGSGGSNYAEKFKGRVTITADKSTSTAYMELSSLRSEDTAVYYCARRRLPPDWYFDVWGQGTTVTVSS
VL: DVVMTQSPLSLPVTLGQPASISCRSSQSLVHSDGNTYLHWYQQKPGQPPKLLIYKVSNRFSGVPDRFSGSGSGTDFTLKISRVEAEDVGVYYCSQSTHVPWTFGGGTKVEIK
Consider B7, for which the “kd” value in the assay with human PD-L2 antigen [1] and in the assay with human PD-L2 antigen [2] was 0.000128 s⁻¹ in each case.

B8: VH1/VK0: anti-PD-L2 variant on hIgG1; SEQ ID NO: 2/SEQ ID NO: 9 (antibody, V domains shown)
VH: QVQLVQSGAELKKPGSSVKVSCKASGYAFSNYFIEWVKQPPGKGLEWIGLNIPGSGGSNYAEKFKGRATITADKSTSTAYMELSSLTSEDSAVYFCARRRLPPDWYFDVWGQGTTVTVSS
VL: DVVMTQTPLSLPVSLGDQASISCRSSQSLVHSDGNTYLHWYLQKPGQSPKLLIYKVSNRFSGVPDRFSGSGSGTDFTLKISRVEAEDLGVYFCSQSTHVPWTFGGGTKLEIK
modifications: human IgG1 constant regions
Regarding B8, the “kd” value in the assay with human PD-L2 antigen [2] was 0.000109 s⁻¹.
